Measurements: US20120316071A1 (published 2012)
One block for each binder: values may come before it.

Key:
[1] = molecular target: T1, rHuman EGF R/Fc Chimera, CF (R&D Systems Cat#344-ER) (human, UniProt P00533 25-645); assay: ECL Multispot (MSD), antigen spotted; Fab 0.50 (µM); blank 142
T1 construct: Bought recombinant protein; Fc part of the bought chimera not given

[2] = molecular target: T2, rHuman Notch-1/Fc Chimera, CF (R&D Systems Cat#3647-TK) (human, UniProt P46531 19-526); assay: as above
T2 construct: Bought recombinant protein; Fc part of the bought chimera not given

[3] = molecular target: T3, rHuman Erythropoietin R/Fc Chimera, CF (R&D Systems Cat#963-ER) (human, UniProt P19235 25-250); assay: Multispot ECL (MSD) titration; antigen spotted on plate; Fab 58.1 nM; blank spot 225
T3 construct: Bought Fc chimera; also called EPO R/Fc; EPO R; Fc part of the bought chimera not given
T3 sequence (looked up): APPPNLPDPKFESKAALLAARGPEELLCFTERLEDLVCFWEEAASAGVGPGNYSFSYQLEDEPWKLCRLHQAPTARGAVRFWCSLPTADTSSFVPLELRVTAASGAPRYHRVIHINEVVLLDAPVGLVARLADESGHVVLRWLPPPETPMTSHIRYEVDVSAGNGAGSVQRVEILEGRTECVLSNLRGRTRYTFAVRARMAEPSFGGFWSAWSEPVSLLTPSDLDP

[4] = molecular target: T4, Recombinant Human DLL4 (R&D Systems Cat#1506-D4/CF) (human, UniProt Q9NR61 27-524); assay: as above
T4 construct: Bought recombinant protein; also called delta-like protein 4; rHuman DLL4

[5] = molecular target: T5, rHuman ErbB2/Fc Chimera, CF (R&D Systems Cat#1129-ER) (human, UniProt P04626 23-652); assay: as above
T5 construct: Bought Fc chimera; also called human epidermal growth factor 2 receptor; Fc part of the bought chimera not given

[6] = molecular target: T6, rHuman Notch-1/Fc Chimera, CF (R&D Systems Cat#3647-TK) (human, UniProt P46531 19-526); assay: as above
T6 construct: Bought Fc chimera; Fc part of the bought chimera not given

[7] = molecular target: T7, rHuman CD44/Fc Chimera, CF (R&D Systems Cat#3660-CD) (human, UniProt P16070 21-220); assay: as above
T7 construct: Bought Fc chimera; Fc part of the bought chimera not given

[8] = molecular target: T8, rHuman IGF-1 sR (IGF-1 sR), CF (R&D Systems Cat#391-GR) (human, UniProt P08069 31-932); assay: as above
T8 construct: Bought soluble receptor; also called insulin-like growth factor-1 soluble receptor

[9] = molecular target: T9, rHuman P-Cadherin/Fc Chimera, CF (R&D Systems Cat#861-PC) (human, UniProt P22223 108-654); assay: as above
T9 construct: Bought Fc chimera; Fc part of the bought chimera not given

[10] = molecular target: T10, rHuman Erythropoietin R/Fc Chimera, CF (R&D Systems Cat#963-ER) (human, UniProt P19235 25-250); assay: MSD Multispot ECL, antigen spotted on plate, Fab at 15 nM; blank spot 261
T10 construct: Bought Fc chimera; also called EPO R/Fc; Epo R; Fc part of the bought chimera not given
T10 sequence (looked up): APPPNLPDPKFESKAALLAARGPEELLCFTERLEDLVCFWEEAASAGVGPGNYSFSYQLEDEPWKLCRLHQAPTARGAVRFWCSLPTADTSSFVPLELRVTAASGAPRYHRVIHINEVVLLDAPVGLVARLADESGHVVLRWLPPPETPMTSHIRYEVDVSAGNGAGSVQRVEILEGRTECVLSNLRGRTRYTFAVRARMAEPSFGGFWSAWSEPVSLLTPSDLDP

[11] = molecular target: T11, rHuman Erythropoietin R/Fc Chimera, CF (R&D Systems Cat#963-ER) (human, UniProt P19235 25-250); assay: ECL multispot (MSD) assay, spotted antigen; Fab 200.00 (head prints uM)
T11 construct: Bought recombinant protein; also called EPO R; EPO R/Fc; Fc part of the bought chimera not given
T11 sequence (looked up): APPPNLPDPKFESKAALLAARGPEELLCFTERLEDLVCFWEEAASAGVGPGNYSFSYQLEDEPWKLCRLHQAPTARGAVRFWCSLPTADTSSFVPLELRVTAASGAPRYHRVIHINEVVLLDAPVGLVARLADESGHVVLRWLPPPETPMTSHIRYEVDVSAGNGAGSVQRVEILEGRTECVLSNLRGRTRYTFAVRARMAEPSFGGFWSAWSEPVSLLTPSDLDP

[12] = molecular target: T12, Recombinant Human DLL4 (R&D Systems Cat#1506-D4/CF) (human, UniProt Q9NR61 27-524); assay: as above
T12 construct: Bought recombinant protein; also called delta-like protein 4

[13] = molecular target: T13, rHuman ErbB2/Fc Chimera, CF (R&D Systems Cat#1129-ER) (human, UniProt P04626 23-652); assay: as above
T13 construct: Bought recombinant protein; Fc part of the bought chimera not given

[14] = molecular target: T14, rHuman EGF R/Fc Chimera, CF (R&D Systems Cat#344-ER) (human, UniProt P00533 25-645); assay: as above
T14 construct: Bought recombinant protein; Fc part of the bought chimera not given

[15] = molecular target: T15, rHuman HGF R/c-MET/Fc Chimera, CF (R&D Systems Cat#358-MT/CF) (human, UniProt P08581 25-932); assay: as above
T15 construct: Bought recombinant protein; also called HGF R/Fc; Fc part of the bought chimera not given

[16] = molecular target: T16, rHuman Notch-1/Fc Chimera, CF (R&D Systems Cat#3647-TK) (human, UniProt P46531 19-526); assay: as above
T16 construct: Bought recombinant protein; Fc part of the bought chimera not given

[17] = molecular target: T17, rHuman CD44/Fc Chimera, CF (R&D Systems Cat#3660-CD) (human, UniProt P16070 21-220); assay: as above
T17 construct: Bought recombinant protein; Fc part of the bought chimera not given

[18] = molecular target: T18, rHuman IGF-1 sR, CF (R&D Systems Cat#391-GR) (human, UniProt P08069 31-932); assay: as above
T18 construct: Bought soluble receptor; The column head prints only 'IGF-1'; also called insulin-like growth factor-1 soluble receptor

[19] = molecular target: T19, rHuman P-Cadherin/Fc Chimera, CF (R&D Systems Cat#861-PC) (human, UniProt P22223 108-654); assay: as above
T19 construct: Bought recombinant protein; Fc part of the bought chimera not given

T15 sequence (P08581 25-932, change not shown): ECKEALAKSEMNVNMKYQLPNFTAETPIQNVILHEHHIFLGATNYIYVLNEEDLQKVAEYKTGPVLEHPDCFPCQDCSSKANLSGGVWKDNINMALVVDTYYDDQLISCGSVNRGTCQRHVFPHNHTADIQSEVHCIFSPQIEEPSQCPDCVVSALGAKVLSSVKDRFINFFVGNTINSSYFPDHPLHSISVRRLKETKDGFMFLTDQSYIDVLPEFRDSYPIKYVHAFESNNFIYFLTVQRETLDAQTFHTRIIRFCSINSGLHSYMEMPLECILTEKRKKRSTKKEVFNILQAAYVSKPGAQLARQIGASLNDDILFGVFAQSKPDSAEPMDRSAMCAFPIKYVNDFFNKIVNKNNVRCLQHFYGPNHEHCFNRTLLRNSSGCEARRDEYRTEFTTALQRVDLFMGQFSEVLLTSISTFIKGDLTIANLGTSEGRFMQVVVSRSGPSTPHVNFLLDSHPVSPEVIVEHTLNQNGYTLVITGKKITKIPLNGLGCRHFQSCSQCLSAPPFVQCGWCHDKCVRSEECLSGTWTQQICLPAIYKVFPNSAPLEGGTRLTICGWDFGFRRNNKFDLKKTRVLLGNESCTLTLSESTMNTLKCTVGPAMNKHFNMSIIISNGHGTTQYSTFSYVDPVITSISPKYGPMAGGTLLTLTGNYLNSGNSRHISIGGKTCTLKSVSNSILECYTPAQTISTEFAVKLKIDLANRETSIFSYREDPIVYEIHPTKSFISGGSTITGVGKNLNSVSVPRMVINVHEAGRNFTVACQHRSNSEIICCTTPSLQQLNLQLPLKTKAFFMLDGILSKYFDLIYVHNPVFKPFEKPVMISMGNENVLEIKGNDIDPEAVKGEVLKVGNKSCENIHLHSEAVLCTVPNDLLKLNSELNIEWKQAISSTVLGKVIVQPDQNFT

ECL signal [1]: 152
ECL signal [2]: 230
B1: Fab VH1-46_IGHD6-6*01_IGHJ1*01 S102A/S103P/S104F (APF) & L6_IGKJ1*01 (Fab, V domains shown)
VH: QVQLVQSGAEVKKPGASVKVSCKASGYTFTSYYMHWVRQAPGQGLEWMGIINPSGGSTSYAQKFQGRVTMTRDTSTSTVYMELSSLRSEDTAVYYCAREEYAPFSAEYFQHWGQGTLVTVSS
VL: not shown
notes: Tested as a Fab made in E. coli: VH cloned in Plasmid A (CH1 constant region, His6 and Flag tags), VL in Plasmid C (kappa constant region); also called H:APF & L:wt; APF triple mutant

ECL signal [3]: 829
ECL signal [4]: 1880
ECL signal [5]: 322
ECL signal [6]: 388
ECL signal [7]: 375
ECL signal [8]: 343
ECL signal [9]: 478
B2: Fab VH1-46_IGHD6-13*01_IGHJ4*01 & O1_IGKJ1*01 (Fab, V domains shown)
VH: QVQLVQSGAEVKKPGASVKVSCKASGYTFTSYYMHWVRQAPGQGLEWMGIINPSGGSTSYAQKFQGRVTMTRDTSTSTVYMELSSLRSEDTAVYYCAREGYSSSWYDYFDYWGQGTLVTVSS
VL: DIVMTQTPLSLPVTPGEPASISCRSSQSLLDSDDGNTYLDWYLQKPGQSPQLLIYTLSYRASGVPDRFSGSGSGTDFTLKISRVEAEDVGVYYCMQRIEFPSWTFGQGTKVEIKR
notes: Germline library Fab expressed in E. coli; VH was cloned into Plasmid A (CH1 constant region, His6 and Flag tags); The kappa VL was cloned into Plasmid C (kappa CL)

ECL signal [10]: 397
B3: Fab VH6-1_IGHD3-3*01_IGHJ4*01 & V4-3_IGLJ4*01 (Fab, V domains shown)
VH: QVQLQQSGPGLVKPSQTLSLTCAISGDSVSSNSAAWNWIRQSPSRGLEWLGRTYYRSKWYNDYAVSVKSRITINPDTSKNQFSLQLNSVTPEDTAVYYCAREYYDFWSGYYTDYFDYWGQGTLVTVSS
VL: QPVLTQPTSLSASPGASARLTCTLRSGINLGSYRIFWYQQKPESPPRYLLSYYSDSSKHQGSGVPSRFSGSKDASSNAGILVISGLQSEDEADYYCMIWHSSASFVFGGGTQLIIL
notes: Tested as a purified germline Fab made in E. coli; The VH was cloned into plasmid A (CH1 constant region, His6 and Flag tags) and the lambda VL into plasmid E (lambda CL)

ECL signal/noise ratio [11]: 1.7
ECL signal/noise ratio [12]: 76.9
ECL signal/noise ratio [13]: 1.7
ECL signal/noise ratio [14]: 1.6
ECL signal/noise ratio [15]: 1.7
ECL signal/noise ratio [16]: 1.7
ECL signal/noise ratio [17]: 1.4
ECL signal/noise ratio [18]: 1.5
ECL signal/noise ratio [19]: 2
B4: Fab VH5-51_IGHD5-18*01>3_IGHJ4*01 G100K/G104T & V3-4_IGLJ1*01 (Fab, V domains shown)
VH: EVQLVQSGAEVKKPGESLKISCKGSGYSFTSYWIGWVRQMPGKGLEWMGIIYPGDSDTRYSPSFQGQVTISADKSISTAYLQWSSLKASDTAMYYCARRKYSYTYDYFDYWGQGTLVTVSS
VL: QTVVTQEPSFSVSPGGTVTLTCGLSSGSVSTSYYPSWYQQTPGQAPRTLIYSTNTRSSGVPDRFSGSILGNKAALTITGAQADDESDYYCVLYMGSGISYVFGTGTKVTVL
notes: Tested as a Fab; The constant parts are the same as for the parent Fab (CH1 with His6/Flag tags, lambda CL); also called KT double mutant; H:KT
